Reference: patent EP3016671B1, “ACTIVELY T[…] PROTEASE-RESISTANT PEPTIDES AS BBB SHUTTLES AND SHUTTLE-CARGO CONSTRUCTS” (Universitat de Barcelona, priority 2013, dated 2015)
Positions of bridges follow the written chain, without caps; N, C: chain ends. Non-standard residues stand in square brackets, D forms with d. Residues, ends and D or L forms follow the SMILES beside them. *: point of attachment. X1 = CCN(CC)c1ccc2c(-c3ccc(S(=O)(=O)*)cc3S(=O)(=O)[O-])c3ccc(=[N+](CC)CC)cc-3oc2c1; Biotin = O=C1N[C@H]2[C@H](CS[C@H]2CCCCC(=O)*)N1; Dopa = N[C@@H](Cc1ccc(O)c(O)c1)C(=O)O; Dap = NC[C@H](N)C(=O)O

Experiments:
[1] = system: bovine brain endothelial cells; experiment: Transport across the BBB, in vitro bovine cell assay (co-culture, transwell); settings: bovine cell model; for Transport (%) (2h) / Papp (x 10^6) cm/s: 37 °C, Ringer-HEPES pH 7.4, 200 µM (Example 21: 1.75 µM), 2 h; for Papp (x 10^6) cm/s: triplicate; for detection of the cargo alone in the acceptor compartments by MALDI-TOF MS: after the 2 h assay, cargo without shuttle
Source text: (§1) The evaluation method chosen to test the compounds of formula (I) and (II) of the invention was a cell-based assay consisting of a co-culture of brain endothelial cells and astrocytes, which allows to evaluate or to predict the transport of compounds through the BBB. The co-culture method used was described by Gaillard and de Boer in 2008 (Gaillard, PJ et al. "2B-Trans technology: targeted drug delivery across the blood-brain barrier" Methods Mol Biol 2008, vol. 437 pp. 161-175) and consists in seeding of rat astrocytes in a side of a polycarbonate filter (transwell) and bovine brain endothelial cells on the other side of the filter. Under these conditions endothelial cells are able to reach the confluence mimicking the BBB. […] Is commonly used model for permeation studies and toxicity of compounds across the BBB.
(§2) The co-culture assay was used to determine the capacity of the constructs cargo-shuttle to cross the BBB. The apparent permeability of the compounds was measured in triplicate at a concentration of 200 µ M for Examples 1, 2, 3, 5, 10, 13, 15, 16, 17 and 19 and at a concentration of 1.75 µM for Example 21. All the assays were performed with transendothelial electrical resistance values equal or higher than 100 Ω · cm^2 and were carried out in the presence of lucifer yellow to assess the integrity of the cell membrane during the test. The permeability tests were performed in Ringer-HEPES buffer at pH 7.4. The compound of interest was dissolved in the buffer to the desired concentration.
(§3) Once the endothelial cells were confluent on the filters (transwells) these were washed with Ringer-HEPES buffer. The acceptor well was filled with 800 µ L of Ringer-HEPES buffer and the donor well with 200 µL of the solution of the compound to be studied. The system was incubated at 37 °C and 5% CO2 for 2 h. After that time the content of the acceptor and donor compartments were analyzed by HPLC-UV, direct ELISA or fluorescence (depending on cargo anchored to the shuttle). […] The apparent permeability was calculated using the following equation: Papp = (dQ/dt) * (1/A) * (1/CO) (cm/s), where (dQ/dt) is the amount of compound present in the compartment acceptor function of time (nmol/s). A is the area of the filter(cm2) and CO is the initial concentration of the compound applied in the donor compartment (nmol/mL).

[2] = system: human endothelial cells derived from hematopoietic stem cells; experiment: Transport across the BBB, in vitro human cell assay (co-culture, transwell); assay type: in vitro ADME; settings: human cell model, 37 °C, 25 nM Examples 22 and 23, 30 nM Example 24, 5 nM Example 25; for Transport (%) (2h): Ringer-HEPES pH 7.4, 200 µM peptides
Method: (§4) Due to the great interest to know whether the cargo-BBB shuttle conjugates would be transported across human brain endothelial cells, some of the most relevant cargoes for therapy and diagnosis were assayed in a novel human-based BBB cell model. In this case, the co-culture method used was described by Cecchelli et al. (Cecchelli et al. PloS One. 2014. vol9. pp. e99733) and consists in seeding bovine pericytes in the bottom of a 12-well plate and human endothelial cells derived from hematopoietic stem cells on a transwell filter.
(§5) The compound of interest was disolved or buffer-exhanged and diluted to the desired concentration.
(§6) Cetuximab and cetuximab conjugates were radiolabelled to be assayed in the cell model. Pierce^(R) iodination beads were used following the instructions provided by the manufacturer.
(§7) The apparent permeability was calculated using the same equation as for the bovine cell model.

[3] = Transport across the BBB, in vitro bovine cell assay (co-culture, transwell); settings: pH 7.4; for Papp at 2 h: bovine
Source text: as §1, §2, §3

[4] = Stability of the shuttles in human serum; assay type: in vitro ADME; settings: HBSS, 37 °C, 90% human serum
Method: Regarding to the stability study in human serum of the BBB-shuttle (examples 1, 2, 3 and 5), the peptides were incubated at a concentration of 400 µM in buffer HBSS at 37 °C in the presence of 90% human serum. At a range of times, 100 µL aliquots were collected to which methanol was added in order to precipitate the serum proteins. Samples were centrifuged, filtered and analyzed by HPLC-UV and MALDI-TOF MS to determine the degree of degradation of the BBB-shuttle. […] The half life of the derivative bearing a single disulfide bond was 3 h (examples 2), whereas that of the linear version was no more than 8 min.

[5] = Transport across the BBB, in vitro human cell assay (co-culture, transwell); assay type: in vitro ADME; settings: human cell model, 37 °C, Ringer-HEPES pH 7.4, 200 µM peptides, 25 nM Examples 22 and 23, 30 nM Example 24, 5 nM Example 25, read-out: Papp (x 10^6)
Method: as §4, §5, §6, §7

Compound: 5(6)-Carboxyfluorescein-Cys-Asn-Cys-Lys-Ala-Pro-Glu-Thr-Ala-Leu-Cys-Ala-Ala-Ala-Cys-His-NH2 ({5(6)‑carboxyfluorescein}-CNCKAPETALCAAACH-NH2; disulfide 1-11, 3-15) [Example 10]
- Transport (%) (2h) [1]: 3.7±1.8%
- Papp (x 10^6) cm/s [1]: 3.1±1.5 (x 10^6) cm/s

Compound: 5(6)-carboxyfluorescein
- detection of the cargo alone in the acceptor compartments by MALDI-TOF MS [1]: not detected

Compound: CC(C)C[C@@H]1NC(=O)[C@H](C)NC(=O)[C@H]([C@@H](C)O)NC(=O)[C@H](CCC(=O)O)NC(=O)[C@@H]2CCCN2C(=O)[C@H](C)NC(=O)[C@H](CCCCN)NC(=O)[C@@H](N)CNC(=O)C[C@@H](C(N)=O)NC1=O [Example 3, H-Dap-Lys-Ala-Pro-Glu-Thr-Ala-Leu-Asp-NH2] (H-[Dap]KAPETALD-NH2; lactam 1-9)
- Transport (%) (2h) [2]: 10.9±1.1%
- Transport (%) (2h) [1]: 6.0±0.7%
- Papp at 2 h [3]: 51 ± 6 nm/s
- degradation in human serum ([4]; 400 µM, 24 h): No degradation

Compound: CCN(CC)c1ccc2c(-c3ccc(S(=O)(=O)NCC(=O)N[C@H]4CSSC[C@@H]5NC(=O)[C@H](CC(C)C)NC(=O)[C@H](C)NC(=O)[C@H]([C@@H](C)O)NC(=O)[C@H](CCC(=O)O)NC(=O)[C@@H]6CCCN6C(=O)[C@H](C)NC(=O)[C@H](CCCCN)NC(=O)[C@H](CSSC[C@@H](C(=O)N[C@@H](Cc6c[nH]cn6)C(N)=O)NC(=O)[C@H](C)NC(=O)[C@H](C)NC(=O)[C@H](C)NC5=O)NC(=O)[C@H](CC(N)=O)NC4=O)cc3S(=O)(=O)[O-])c3ccc(=[N+](CC)CC)cc-3oc2c1 [Example 13, sulforhodamine b-Gly-Cys-Asn-Cys-Lys-Ala-Pro-Glu-Thr-Ala-Leu-Cys-Ala-Ala-Ala-Cys-His-NH2] (X1-GCNCKAPETALCAAACH-NH2; disulfide 2-12, 4-16)
- Transport (%) (2h) [1]: 2.4±0.4%
- Papp [3]: 20 ± 3 nm/s

Compound: CC(C)C[C@@H]1NC(=O)[C@H](C)NC(=O)[C@H]([C@@H](C)O)NC(=O)[C@H](CCC(=O)O)NC(=O)[C@@H]2CCCN2C(=O)[C@H](C)NC(=O)[C@H](CCCCN)NC(=O)[C@@H]2CSSC[C@@H](C(=O)N[C@@H](Cc3c[nH]cn3)C(N)=O)NC(=O)[C@H](C)NC(=O)[C@H](C)NC(=O)[C@H](C)NC(=O)[C@H](CSSC[C@H](NC(=O)[C@@H](N)Cc3ccc(O)c(O)c3)C(=O)N[C@@H](CC(N)=O)C(=O)N2)NC1=O [Example 16, L-Dopa-Cys-Asn-Cys-Lys-Ala-Pro-Glu-Thr-Ala-Leu-Cys-Ala-Ala-Ala-Cys-His-NH2] (H-[Dopa]CNCKAPETALCAAACH-NH2; disulfide 2-12, 4-16)
- Transport (%) (2h) [1]: 3.1±0.3%
- Papp at 2 h [3]: 26 ± 3 nm/s

Compound: CC(C)C[C@@H]1NC(=O)[C@H](C)NC(=O)[C@H]([C@@H](C)O)NC(=O)[C@H](CCC(=O)O)NC(=O)[C@@H]2CCCN2C(=O)[C@H](C)NC(=O)[C@H](CCCCN)NC(=O)[C@@H](NC(=O)[C@@H](N)Cc2ccc(O)c(O)c2)CSSC[C@@H](C(N)=O)NC1=O [Example 17, L-Dopa-Cys-Lys-Ala-Pro-Glu-Thr-Ala-Leu-Cys-NH2] (H-[Dopa]CKAPETALC-NH2; disulfide 2-10)
- Transport (%) (2h) [1]: 2.9%
- Papp at 2 h [3]: 24 nm/s

Compound: CC(C)C[C@@H]1NC(=O)[C@H](C)NC(=O)[C@H]([C@@H](C)O)NC(=O)[C@H](CCC(=O)O)NC(=O)[C@@H]2CCCN2C(=O)[C@H](C)NC(=O)[C@H](CCCCN)NC(=O)[C@@H](NC(=O)[C@@H](N)Cc2ccc(O)c(O)c2)CNC(=O)C[C@@H](C(N)=O)NC1=O [Example 18, L-Dopa-Dap-Lys-Ala-Pro-Glu-Thr-Ala-Leu-Asp-NH2] (H-[Dopa][Dap]KAPETALD-NH2; lactam 2-10)
- Papp at 2 h [5]: 40 ± 13 nm/s
- Transport (%) (2h) [2]: 6.6±2.1%

Compound: CC(C)C[C@@H]1NC(=O)[C@H](C)NC(=O)[C@H]([C@@H](C)O)NC(=O)[C@H](CCC(=O)O)NC(=O)[C@@H]2CCCN2C(=O)[C@H](C)NC(=O)[C@H](CCCCN)NC(=O)[C@@H]2CSSC[C@@H](C(=O)N[C@@H](Cc3c[nH]cn3)C(N)=O)NC(=O)[C@H](C)NC(=O)[C@H](C)NC(=O)[C@H](C)NC(=O)[C@H](CSSC[C@H](NC(=O)CNC(=O)[C@H](CC(=O)O)NC(=O)[C@H](Cc3ccccc3)NC(=O)[C@H](Cc3ccccc3)NC(=O)[C@@H]3CCCN3C(=O)[C@@H](N)CC(C)C)C(=O)N[C@@H](CC(N)=O)C(=O)N2)NC1=O [Example 19] (H-LPFFDGCNCKAPETALCAAACH-NH2; disulfide 7-17, 9-21)
- Transport (%) (2h) [1]: 1.8±0.5%
- Papp at 2 h [3]: 15 ± 4 nm/s

Compound: N[C@@H](Cc1ccc(O)c(O)c1)C(=O)O [L-dopa]
- detection of the cargo alone in the acceptor compartments by MALDI-TOF MS [1]: not detected

Compound: O=C(O)CCCC[C@@H]1SC[C@@H]2NC(=O)N[C@@H]21 [biotin]
- detection of the cargo alone in the acceptor compartments by MALDI-TOF MS [1]: not detected

Compound: CCN(CC)c1ccc2c(-c3ccc(S(=O)(=O)O)cc3S(=O)(=O)[O-])c3ccc(=[N+](CC)CC)cc-3oc2c1 [sulforhodamine b]
- detection of the cargo alone in the acceptor compartments by MALDI-TOF MS [1]: not detected

Compound: Biotin-CNCKAPETALCAAACH-NH2 (cysteine pairing not given here) [Example 15]
- Transport (%) (2h) [1]: 1.9±0.8%

Compound: Gold nanoparticle-Cys-Dap-Lys-Ala-Pro-Glu-Thr-Ala-Leu-Asp-NH2 [Example 25]
- Transport (%) (2h) [2]: 0.034%

Compound: H-Cys-Lys-Ala-Pro-Glu-Thr-Ala-Leu-Cys-NH2 (H-CKAPETALC-NH2; cysteine pairing not given here) [Example 2]
- Transport (%) (2h) [1]: 3.1±1.0%
- half life in human serum ([4]; 400 µM): 3 h

Compound: H-Cys-Lys-Ala-Pro-Glu-Thr-Ala-Leu-Cys-NH2 (H-CKAPETALC-NH2; cysteine pairing not given here) [Example 4]
- Transport (%) (2h) [2]: 9.9±0.6%
- Papp (x 10^6) cm/s ([2]; 2 h, Ringer-HEPES pH 7.4, 200 µM peptides): 6.1±0.4 (x 10^6) cm/s

Compound: H-KAPETAL-NH2 [Example 5, H-Lys-Ala-Pro-Glu-Thr-Ala-Leu-NH2]
- Transport (%) (2h) [1]: 2.3±0.8%
- Papp at 2 h [3]: 20 ± 6 nm/s
- half-life at 400 µM [4]: ≤ 8 min

Compound: H-LPFFD-NH2 [H-Leu-Pro-Phe-Phe-Asp-NH2, reference compound]
- detection of the cargo alone in the acceptor compartments by MALDI-TOF MS [1]: not detected

Compound: Lysozyme-V3-Cys-Asn-Cys-Lys-Ala-Pro-Glu-Thr-Ala-Leu-Cys-Ala-Ala-Ala-Cys-His-NH2 [Example 21]
- Transport (%) (2h) [1]: 0.08±0.03%
- Papp (x 10^6) cm/s [1]: 0.07±0.03 (x 10^6) cm/s

Compound: Quantum dot-PEG-NH-V1-Dap-Lys-Ala-Pro-Glu-Thr-Ala-Leu-Asp-NH2 [Example 24]
- Transport (%) (2h) [2]: 0.23±0.09%
